Results on five molecules are retold here after patent publication US8173771B2, “Humanin receptor or humanin-like polypeptide receptor” (Keio Univeristy, priority 2005, dated 2012).

The target in assay [1] is T1, HN receptor (HNR; CNTF-R/WSX-1/gp130) on F11 cells (Mus musculus, UniProt O70394+O88507).
T1 construct: endogenous in cells; host or cells: F11 neurohybrid cells
T1 sequence (O70394 25-623): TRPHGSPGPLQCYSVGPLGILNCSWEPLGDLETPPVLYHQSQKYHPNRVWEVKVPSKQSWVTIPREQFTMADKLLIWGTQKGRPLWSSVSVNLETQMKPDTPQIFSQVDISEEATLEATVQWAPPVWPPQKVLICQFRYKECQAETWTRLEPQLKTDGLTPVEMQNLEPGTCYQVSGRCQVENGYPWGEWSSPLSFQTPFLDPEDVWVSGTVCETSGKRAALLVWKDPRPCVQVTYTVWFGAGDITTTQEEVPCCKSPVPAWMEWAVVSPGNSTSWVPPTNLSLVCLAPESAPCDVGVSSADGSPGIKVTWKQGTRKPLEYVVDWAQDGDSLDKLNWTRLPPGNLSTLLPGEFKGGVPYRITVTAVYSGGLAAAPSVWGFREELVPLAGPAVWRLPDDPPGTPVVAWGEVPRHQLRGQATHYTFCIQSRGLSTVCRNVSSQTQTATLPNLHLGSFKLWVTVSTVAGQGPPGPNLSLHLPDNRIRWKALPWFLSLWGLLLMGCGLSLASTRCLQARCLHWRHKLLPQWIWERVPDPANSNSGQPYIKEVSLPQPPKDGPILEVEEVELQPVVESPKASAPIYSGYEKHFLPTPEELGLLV
T1 sequence (O88507 23-342): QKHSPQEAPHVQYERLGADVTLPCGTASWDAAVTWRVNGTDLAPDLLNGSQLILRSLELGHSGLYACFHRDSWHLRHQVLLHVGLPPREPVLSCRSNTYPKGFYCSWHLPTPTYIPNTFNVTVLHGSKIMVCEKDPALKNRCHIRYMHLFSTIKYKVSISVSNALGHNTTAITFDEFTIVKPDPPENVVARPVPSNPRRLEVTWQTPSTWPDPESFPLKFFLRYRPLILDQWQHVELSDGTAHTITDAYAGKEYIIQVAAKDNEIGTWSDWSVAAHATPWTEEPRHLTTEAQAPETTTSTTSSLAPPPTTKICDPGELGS
T1 sequence (Q00560 23-917 partner): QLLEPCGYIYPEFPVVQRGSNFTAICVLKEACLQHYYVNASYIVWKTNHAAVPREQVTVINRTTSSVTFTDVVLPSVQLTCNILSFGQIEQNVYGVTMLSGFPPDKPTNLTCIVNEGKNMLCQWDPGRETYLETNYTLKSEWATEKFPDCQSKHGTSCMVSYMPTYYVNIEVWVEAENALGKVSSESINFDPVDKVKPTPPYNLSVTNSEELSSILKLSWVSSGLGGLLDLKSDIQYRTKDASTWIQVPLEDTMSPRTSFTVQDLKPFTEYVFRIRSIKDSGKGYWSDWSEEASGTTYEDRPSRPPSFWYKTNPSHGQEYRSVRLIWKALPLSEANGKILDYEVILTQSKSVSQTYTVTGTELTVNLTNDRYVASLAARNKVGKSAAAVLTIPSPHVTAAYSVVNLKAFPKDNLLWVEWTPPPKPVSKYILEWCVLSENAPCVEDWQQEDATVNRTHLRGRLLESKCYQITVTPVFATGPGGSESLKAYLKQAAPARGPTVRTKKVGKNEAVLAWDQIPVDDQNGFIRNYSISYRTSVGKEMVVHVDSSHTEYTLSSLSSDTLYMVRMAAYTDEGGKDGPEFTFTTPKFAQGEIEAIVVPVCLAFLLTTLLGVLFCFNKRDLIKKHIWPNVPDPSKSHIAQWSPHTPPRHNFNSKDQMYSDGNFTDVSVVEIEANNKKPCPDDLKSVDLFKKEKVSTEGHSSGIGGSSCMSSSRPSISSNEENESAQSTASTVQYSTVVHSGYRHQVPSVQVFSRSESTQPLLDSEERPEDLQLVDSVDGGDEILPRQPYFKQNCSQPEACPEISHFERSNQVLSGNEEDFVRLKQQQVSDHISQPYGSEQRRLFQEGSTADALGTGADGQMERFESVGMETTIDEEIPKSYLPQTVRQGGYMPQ
The experiment in a line: Immunofluorescence-based binding assay (2): biotin-HN / biotin-HNG binding to F11 cells. To be noted: biotin-HN; F11 cells with endogenous HNR or transfected with CNTF-R/WSX-1/gp130. As to the method: A) F11 cells were seeded on 96-well plates coated with poly-L-lysine (7×10^3 cells/well). An indicated amount of biotin-HN or biotin-HNG was added to the cells with or without 10 μM of unlabelled HNG or HNA, followed by a binding assay based on immunofluorescence reaction (2) (left panels). On the other hand, F11 cells were transfected with 0.5 μg of pcDNA3.1/GS-human CNTF-R, pEF1/MycHis-human WSX-1, and 1.0 μg of pCAG-human gp130. At 24 hrs after the transfection, the cells were re-seeded on 96-well plates coated with poly-L-lysine (7×10^3 cells/well). After 36 hrs the re-seeding, an indicated amount of biotin-HN or biotin-HNG was added to the cells with or without 10 μM of unlabeled HNG or HNA, followed by a binding assay based on immunofluorescence reaction (2) (right panels).
B) F11 cells were transfected with 0.5 μg of pRNA-U1.6/Shuttle vector, pRNA-U6.1/Shuttle-WSX-1 siRNA, pRNA-U6.1/Shuttle-CNTF-R siRNA, both pRNA-U6.1/Shuttle-WSX-1 siRNA and pRNA-U6.1/Shuttle-CNTF-R siRNA (0.5 μg each), pRNA-U6.1/Shuttle-FPR2 siRNA or pRNA-U6.1/Shuttle-LIFR siRNA. The total amount of vectors was adjusted to be 1.0 μg by including a backbone vector. At 24 hrs after the transfection, an indicated amount of biotin-HNG was added with or without unlabeled HNG, followed by a binding assay based on immunofluorescence reaction (2) at 72 hrs after the transfection.
E) F11 cells on 6-well plate (7×10^4 cells/well) were transfected with 1.0 μg of pRNA-U6.1/Shuttle vector, pRNA-U6.1/Shuttle-Bax siRNA, or both pRNA-U6.1/Shuttle-WSX-1 siRNA and pRNA-U6.1/Shuttle-CNTF-R siRNA (0.5 μg each). At 72 hrs after the transfection, the cells were added with an indicated amount of biotin-HN with or without unlabeled HN or HNA (100 μM) and subjected to an HN-binding assay based on immunofluorescence.
F11 cells (7×10^4/well in 6-well plates) were replated into 96-well plates (7×10^3 cells/well) at 24 hrs after transfection with indicated amounts of the plasmids encoding mycHis-WSX or V5-CNTF-R, and with PCAG-human gp130 if required. At 36 hrs after transfection, the cells were added with biotin-labeled HN or HNG of indicated concentrations in the presence or the absence of HNG (S14G-HN) or HNA (C8A-HN) of indicated concentrations (Hashimoto et al., 2001 a). After 6 hrs incubation, they were fixed with 4% paraformaldehyde in PBS for 30 min. After washing with PBS, cells were stained with FITC-conjugated avidin (Molecularprobe, Eugene, Oreg., USA). Immunofluorescence intensity was measured (excitation=485 nm, emission=535 nm) with a spectrofluorometer (Wallac1420 ARVOsx Multi Label Counter). Immunohistochemical analysis was done with a laser-scanning, confocal microscope LSM (Carl Zeiss, Germany).

The test system of assay [2] is primary cortical neurons (PCNs). Description: Aβ neurotoxicity in primary cortical neurons, WST-8 / Calcein / LDH. It is filed as cell-based, mouse. The settings on record: 25 μM Aβ; for inhibition of neurotoxicity by Aβ: cytokine alone, physiological levels (up to 100 ng/ml). As to the method: B) PCNs were incubated with 25 μM Aβ (upper) in the presence of 10 μg of recombinant soluble human gp130 (lower “+”) or BSA (lower “−”). Cell viability was determined by WST-8 assay (upper) or Calcein fluorescence assay (lower) at 72 hr after the onset of treatment with Aβ.
C) PCNs were incubated with 25 μM Aβ (1-43) in the presence of 1 μg of neutralizing anti-mouse gp130 antibody (RX435) or control IgG. Cell viability and cell mortality were determined by Calcein fluorescence (left panel) and LDH assays (right panel), respectively, at 72 hr after the onset of treatment with Aβ (1-43).
[…] At 72 hr after incubation, the cells were harvested for WST-8 assays or/and Calcein fluorescence assays to show cell viability.
B) The soluble IL-6 receptor-α (sIL-6R) or the soluble CNTF-R (100 ng/ml) were added to the cells as in the above A), followed by the stimulation with its ligand, IL-6 or CNTF (100 ng/ml), respectively to show the effects on the neuronal cell death due to Aβ. The right and left graphs show the cell viabilities determined by WST-8 assays and Calcein fluorescence assays, respectively.
C) The neutralizing antibodies (1 μg) for the mouse gp130, mouse LIFR, mouse IL-11R and rat CNTF-R were added as in the above A), and cell viability was determined by Calcein fluorescence assays after 72 hours.
WST-8 assay was performed at 72 hrs after the treatment.
The primary culture of mouse cortical neurons was prepared as described previously (Sudo et al., 2000). Briefly, primary cortical neurons, obtained from embryonic day 14 (E14) ICR mice were seeded in poly-L-lysine-coated 96 well plates (Sumitomo Bakelite) at 2.5 or 5.0×10^4 cells/well in Neuron Medium (Sumitomo Bakelite) (Hashimoto et al., 2003; Niikura et al., 2004). Purity of neurons by this method was >98%. After 3 days, the culture medium was replaced with DMEM with N2 supplement. On the fourth day in vitro, 25 μM of Aβ (1-42) was added in association with indicated concentrations of HN or cytokines in the presence or the absence of soluble cytokine receptors or neutralizing antibodies. At 72 hrs after the onset of treatment, cell viability was assessed by WST-8 assay and/or Calcein fluorescence assay and cell mortality was assessed by the Trypan blue exclusion assay and LDH assay (Hashimoto et al, 2000, 2001 a b, 2003).

The Kd is the equilibrium constant for the complex coming apart. Read a high Kd as lower affinity. In assay [1], `CC[C@H](C)[C@H](NC(=O)[C@H](CCC(=O)O)NC(=O)[C@H](CO)NC(=O)[C@@H](NC(=O)[C@H](CC(C)C)NC(=O)[C@H](CC(C)C)NC(=O)[C@H](CC(C)C)NC(=O)[C@H](CC(C)C)NC(=O)[C@H](CS)NC(=O)[C@H](CO)NC(=O)[C@H](Cc1ccccc1)NC(=O)CNC(=O)[C@H](CCCNC(=N)N)NC(=O)[C@@H]1CCCN1C(=O)[C@H](C)NC(=O)[C@@H](N)CCSC)[C@@H](C)O)C(=O)N[C@@H](CC(=O)O)C(=O)N[C@@H](CC(C)C)C(=O)N1CCC[C@H]1C(=O)N[C@H](C(=O)N[C@@H](CCCCN)C(=O)N[C@@H](CCCNC(=N)N)C(=O)N[C@@H](CCCNC(=N)N)C(=O)N[C@@H](C)C(=O)O)C(C)C` [HN, Humanin] had a Kd of 1 to 10 µM.

B1: OSM: human OncostatinM, recombinant cytokine (protein, UniProt P13725 26-221, looked up)
Oncostatin-M: AAIGSCSKEYRVLLGQLQKQTDLMQDTSRLLDPYIRIQGLDVPKLREHCRERPGAFPSEETLRGLGRRGFLQTLNATLGCVLHRLADLEQRLPKAQDLERSGLNIEDLEKLQMARPNILGLRNNIYCMAQLLDNSDTAEPTKAGRGASQPPTPTPASDAFQRKLEGCRFLHGYHRFMHSVGRVFSKWGESPNRSRR
On to B1, for which, in assay [2], the “inhibition of neurotoxicity by Aβ” value is on record as “did not inhibit”.

B2: CT-1: mouse cardiotropin-1, recombinant cytokine (protein, UniProt Q60753 1-203, looked up)
Cardiotrophin-1: MSQREGSLEDHQTDSSISFLPHLEAKIRQTHNLARLLTKYAEQLLEEYVQQQGEPFGLPGFSPPRLPLAGLSGPAPSHAGLPVSERLRQDAAALSVLPALLDAVRRRQAELNPRAPRLLRSLEDAARQVRALGAAVETVLAALGAAARGPGPEPVTVATLFTANSTAGIFSAKVLGFHVCGLYGEWVSRTEGDLGQLVPGGVA
Take B2: the “inhibition of neurotoxicity by Aβ” value in assay [2] was “did not inhibit”.

B3: IL-11: recombinant cytokine of the IL-6 family (protein, UniProt P47873 22-199, looked up)
Interleukin-11: PGPPAGSPRVSSDPRADLDSAVLLTRSLLADTRQLAAQMRDKFPADGDHSLDSLPTLAMSAGTLGSLQLPGVLTRLRVDLMSYLRHVQWLRRAGGPSLKTLEPELGALQARLERLLRRLQLLMSRLALPQAAPDQPVIPLGPPASAWGSIRAAHAILGGLHLTLDWAVRGLLLLKTRL
For the molecule B3, in assay [2], the “inhibition of neurotoxicity by Aβ” value was “did not inhibit”.

B4: recombinant soluble human gp130: recombinant soluble human gp130 consisting of the extracellular domain of human gp130; dominant-negative form (protein, UniProt P40189 23-619, looked up)
extracellular domain: ELLDPCGYISPESPVVQLHSNFTAVCVLKEKCMDYFHVNANYIVWKTNHFTIPKEQYTIINRTASSVTFTDIASLNIQLTCNILTFGQLEQNVYGITIISGLPPEKPKNLSCIVNEGKKMRCEWDGGRETHLETNFTLKSEWATHKFADCKAKRDTPTSCTVDYSTVYFVNIEVWVEAENALGKVTSDHINFDPVYKVKPNPPHNLSVINSEELSSILKLTWTNPSIKSVIILKYNIQYRTKDASTWSQIPPEDTASTRSSFTVQDLKPFTEYVFRIRCMKEDGKGYWSDWSEEASGITYEDRPSKAPSFWYKIDPSHTQGYRTVQLVWKTLPPFEANGKILDYEVTLTRWKSHLQNYTVNATKLTVNLTNDRYLATLTVRNLVGKSDAAVLTIPACDFQATHPVMDLKAFPKDNMLWVEWTTPRESVKKYILEWCVLSDKAPCITDWQQEDGTVHRTYLRGNLAESKCYLITVTPVYADGPGSPESIKAYLKQAPPSKGPTVRTKKVGKNEAVLEWDQLPVDVQNGFIRNYTIFYRTIIGNETAVNVDSSHTEYTLSSLTSDTLYMVRMAAYTDEGGKDGPEFTFTTPKFAQGEIE
modifications: extracellular domain
notes: recombinant soluble human gp130 consisting of the extracellular domain of human gp130; dominant-negative form
For the molecule B4, in assay [2] (PCNs), the “effect on HN-mediated neuroprotection” value is listed as “complete suppression”.
